Experimental data published in US20240238445A1, “INHIBITORS AND USES THEREOF” (NEURACLE SCIENCE CO., LTD., priority 2021, published 2024).
Ends that are not written are not given here.

Tests used:
[1] = target: binding of FAM19A5 protein to full-length ectodomain of the LRRC4B protein (amino acids 36-576 of SEQ ID NO: 2) (Homo sapiens, UniProt Q7Z5A7); experiment: Competitive inhibition assay, plate coated with full-length ectodomain of LRRC4B (amino acids 36-576); details: for inhibition of interaction between FAM19A5 and the coated LRRC4B protein fragments (in words): statement covers both coats, LRRC4B (36-576) and LRRC4B (453-576); for inhibition of FAM19A5 binding to coated full-length LRRC4B ectodomain protein (in words): increasing concentrations, FAM19A5 5 ng/mL, 100 nM coat
Sequence of binding of FAM19A5 protein to full-length ectodomain of the LRRC4B protein (amino acids 36-576 of SEQ ID NO: 2) (Q7Z5A7 44-132): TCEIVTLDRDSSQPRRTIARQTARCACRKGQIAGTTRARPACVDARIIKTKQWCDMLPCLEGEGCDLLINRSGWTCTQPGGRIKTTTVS
Experimental: Next, to further assess the role that the binding domain of the LRRC4B protein has on the interaction between FAM19A5 protein and members of the LRRC4 protein family, a competitive inhibition assay was used to determine whether different LRRC4B deletion constructs from Example 2 could inhibit the binding of FAM19A5 to the full-length ectodomain of the LRRC4B protein (i.e., amino acids 36-576 of SEQ ID NO: 2; SEQ ID NO: 5). Briefly, 100 nM of the full-length ectodomain of the LRRC4B protein was used to coat a plate, and then recombinant FAM19A5 protein (5 ng/mL) was added to the plate in combination with the following LRRC4B deletion constructs (increasing concentrations): (1) LRRC4B (453-576) (i.e., construct #11 in Table 6); (2) LRRC4B (453-576) mutant (comprises alanine substitutions at positions 488 and 489 of SEQ ID NO: 2; SEQ ID NO: 16); (3) LRRC4B (484-576) (i.e., construct #12 in Table 6); (4) LRRC4B (482-576); (5) LRRC4B (482-497); and (6) LRRC4B (498-576). The plates were incubated at 37° C., and then, the amount of FAM19A5 bound to the coated LRRC4B ectodomain protein was measured using HRP-conjugated anti-FAM19A5 (1-65) antibody.
As described in Example 3, there appeared to be much similarity in the binding domains of the different members of the LRRC4 family. […] Then, recombinant FAM19A5 protein (5 ng/mL) was added in combination with one of the following: (i) LRRC4B (484-576) protein fragment, (ii) LRRC4B (453-576, AA) protein fragment, and (iii) synthetic FB-20 peptide. The plates were incubated at 37° C., and then, the amount of FAM19A5 protein bound to the coated LRRC4, LRRC4B, or LRRC4C proteins was measured using anti-FAM19A5 (1-65) antibody.
(§1) Next, to assess whether polypeptides comprising the binding domains of LRRC4 or LRRC4C proteins can have similar inhibitory effects on LRRC4B protein binding, the following synthetic peptides were constructed: (1) FBC4-23 (contains the binding domain of the LRRC4 protein, i.e., YSFFTTVTVETTE); and (2) FBC4C-23 (contains the binding domain of the LRRC4C protein, i.e., FSYFSTVTVETME). Then, the ability of the peptides to inhibit the binding of LRRC4 protein family members to FAM19A5 protein was assessed using a competitive inhibition assay. Briefly, plates were coated with 100 nM of either LRRC4B protein fragment #1 (amino acids 36-576 of SEQ ID NO: 2; SEQ ID NO: 5) or LRRC4B protein fragment #2 (amino acids 453-576 of SEQ ID NO: 2; SEQ ID NO: 7). Then, recombinant FAM19A5 protein (5 ng/ml for plates coated with LRRC4B fragment #1; and 1 ng/mL for plates coated with LRRC4B fragment #2) was added to the plates in combination with 20 nM of the FBC4-23, FBC4C-23, and FB-20 peptides. The plates were incubated at 37° C. and then, the amount of FAM19A5 protein bound to the coated LRRC4B protein fragments was assessed using HRP-conjugated anti-FAM19A5 (1-65) antibody.
Next, to determine the minimal sequence required to inhibit the interaction of FAM19A5 and members of the LRRC4 protein family, ten FB-20 peptide variants were constructed by serially deleting one or more amino acids from the N-terminus or C-terminus of the FB-20 peptide. Then, a competitive inhibition assay was used to assess the ability of the different FB-20 peptide variants to inhibit the interaction between FAM19A5 and LRRC4B protein. Again, plates were coated with 100 nM of either LRRC4B protein fragment #1 (amino acids 36-576 of SEQ ID NO: 2; SEQ ID NO: 5) or LRRC4B protein fragment #2 (amino acids 453-576 of SEQ ID NO: 2; SEQ ID NO: 7). Then, recombinant FAM19A5 protein (5 ng/ml for plates coated with LRRC4B fragment #1; and 1 ng/mL for plates coated with LRRC4B fragment #2) was added to the plates in combination with 20 nM of the different peptides described above. After incubating the plates at 37° C., the amount of FAM19A5 protein bound to the coated LRRC4B protein fragments was assessed using HRP-conjugated anti-FAM19A5 (1-65) antibody. […]

[2] = target: binding of FAM19A5 protein to LRRC4B (amino acids 453-576)-hFc (Homo sapiens, UniProt Q7Z5A7); experiment: Competitive inhibition assay, plate coated with LRRC4B (amino acids 453-576)-hFc, peptides at 20 nM
Sequence of binding of FAM19A5 protein to LRRC4B (amino acids 453-576)-hFc (Q7Z5A7 44-132): as above
Description: as §1
Next, to determine the minimal sequence required to inhibit the interaction of FAM19A5 and members of the LRRC4 protein family, ten FB-20 peptide variants were constructed by serially deleting one or more amino acids from the N-terminus or C-terminus of the FB-20 peptide. Then, a competitive inhibition assay was used to assess the ability of the different FB-20 peptide variants to inhibit the interaction between FAM19A5 and LRRC4B protein. Again, plates were coated with 100 nM of either LRRC4B protein fragment #1 (amino acids 36-576 of SEQ ID NO: 2; SEQ ID NO: 5) or LRRC4B protein fragment #2 (amino acids 453-576 of SEQ ID NO: 2; SEQ ID NO: 7). Then, recombinant FAM19A5 protein (5 ng/ml for plates coated with LRRC4B fragment #1; and 1 ng/mL for plates coated with LRRC4B fragment #2) was added to the plates in combination with 20 nM of the different peptides described above. After incubating the plates at 37° C., the amount of FAM19A5 protein bound to the coated LRRC4B protein fragments was assessed using HRP-conjugated anti-FAM19A5 (1-65) antibody.
To identify the critical amino acid residues, multiple FB-20 peptide mutants were constructed, in which the individual residues of the core binding domain (i.e., YTYFTTVTVETLE; SEQ ID NO: 15) were substituted with alanine (A) or asparagine (N). Then, the ability of these FB-20 peptide mutants to inhibit the interaction between LRRC4B and FAM19A5 proteins was assessed, as described in Examples 3 and 4.

[3] = Table 10, alanine/asparagine mutants
[4] = Table 9, deletion variants, 20 nM peptide, FAM19A5 5 ng/ml
[5] = Table 9, deletion variants, 20 nM peptide, FAM19A5 1 ng/mL

## GYTYFTTVTNETLETQPGEE [FB-20[N9]]
[1]; [3]
  Inhibition rate (%) LRRC4B (amino acids 36-576)-hFc: 17.5%
[2]; [3]
  Inhibition rate (%) LRRC4B (amino acids 453-576)-hFc: 6.5%

## GYTYFTTVTVATLETQPGEE [FB-20[A10]]
[1]; [3]
  Inhibition rate (%) LRRC4B (amino acids 36-576)-hFc: 19.6%
[2]; [3]
  Inhibition rate (%) LRRC4B (amino acids 453-576)-hFc: 6.4%

## GYTYFTTVTVEALETQPGEE [FB-20[A11]]
[1]; [3]
  Inhibition rate (%) LRRC4B (amino acids 36-576)-hFc: 73.4%
[2]; [3]
  Inhibition rate (%) LRRC4B (amino acids 453-576)-hFc: 50.3%

## GYTYFTTVTVENLETQPGEE [FB-20[N11]]
[1]; [3]
  Inhibition rate (%) LRRC4B (amino acids 36-576)-hFc: 74.1%
[2]; [3]
  Inhibition rate (%) LRRC4B (amino acids 453-576)-hFc: 55.6%

## GYTYFTTVTVETAETQPGEE [FB-20[A12]]
[1]; [3]
  Inhibition rate (%) LRRC4B (amino acids 36-576)-hFc: 73.0%
[2]; [3]
  Inhibition rate (%) LRRC4B (amino acids 453-576)-hFc: 56.2%

## GYTYFTTVTVETLATQPGEE [FB-20[A13]]
[1]; [3]
  Inhibition rate (%) LRRC4B (amino acids 36-576)-hFc: 51.4%
[2]; [3]
  Inhibition rate (%) LRRC4B (amino acids 453-576)-hFc: 27.2%

## GYTYFTTVTVNTLETQPGEE [FB-20[N10]]
[1]; [3]
  Inhibition rate (%) LRRC4B (amino acids 36-576)-hFc: 27.0%
[2]; [3]
  Inhibition rate (%) LRRC4B (amino acids 453-576)-hFc: 10.8%

## GYTYNTTVTVETLETQPGEE [FB-20[N4]]
[1]; [3]
  Inhibition rate (%) LRRC4B (amino acids 36-576)-hFc: −1.3%
[2]; [3]
  Inhibition rate (%) LRRC4B (amino acids 453-576)-hFc: 2.5%

## KNFTTVTVETNKETQ [FB-m8dN]
[1]; 20 nM peptide
  inhibition of interaction between FAM19A5 and the coated LRRC4B protein fragments (in words): failed to significantly inhibit
[1]; [4]
  Inhibition rate (%) LRRC4B (amino acids 36-576)-hFc: 3.3%
[2]; [5]
  Inhibition rate (%) LRRC4B (amino acids 453-576)-hFc: −1.1%

## KNTTVTVETNKETQ [FB-m7dN]
[1]; 20 nM peptide
  inhibition of interaction between FAM19A5 and the coated LRRC4B protein fragments (in words): failed to significantly inhibit
[1]; [4]
  Inhibition rate (%) LRRC4B (amino acids 36-576)-hFc: 2.0%
[2]; [5]
  Inhibition rate (%) LRRC4B (amino acids 453-576)-hFc: −1.8%

## KNTYFTTVTVETNKETQ [FB-m10dN]
[1]; 20 nM peptide
  inhibition of interaction between FAM19A5 and the coated LRRC4B protein fragments (in words): failed to significantly inhibit
[1]; [4]
  Inhibition rate (%) LRRC4B (amino acids 36-576)-hFc: 7.7%
[2]; [5]
  Inhibition rate (%) LRRC4B (amino acids 453-576)-hFc: 0.0%

## KNYFTTVTVETNKETQ [FB-m9dN]
[1]; 20 nM peptide
  inhibition of interaction between FAM19A5 and the coated LRRC4B protein fragments (in words): failed to significantly inhibit
[1]; [4]
  Inhibition rate (%) LRRC4B (amino acids 36-576)-hFc: 2.5%
[2]; [5]
  Inhibition rate (%) LRRC4B (amino acids 453-576)-hFc: −1.6%

## KNYTYFTTNKETQ [FB-m6dC]
[1]; 20 nM peptide
  inhibition of interaction between FAM19A5 and the coated LRRC4B protein fragments (in words): failed to significantly inhibit
[1]; [4]
  Inhibition rate (%) LRRC4B (amino acids 36-576)-hFc: 14.9%
[2]; [5]
  Inhibition rate (%) LRRC4B (amino acids 453-576)-hFc: 5.5%

## KNYTYFTTVNKETQ [FB-m7dC]
[1]; 20 nM peptide
  inhibition of interaction between FAM19A5 and the coated LRRC4B protein fragments (in words): failed to significantly inhibit
[1]; [4]
  Inhibition rate (%) LRRC4B (amino acids 36-576)-hFc: 4.4%
[2]; [5]
  Inhibition rate (%) LRRC4B (amino acids 453-576)-hFc: 0.4%

## LRRC4B (482-497): LRRC4B ectodomain fragment, amino acids 482-497 of SEQ ID NO: 2 (GGYTYFTTVTVETLET; also: dimerising Fc or GST fusion left off)
[1]
  inhibition of FAM19A5 binding to coated full-length LRRC4B ectodomain protein (in words): also able to inhibit the interaction

B1: LRRC4B (482-576): LRRC4B ectodomain fragment, amino acids 482-576 of SEQ ID NO: 2 (protein)
chain: GGYTYFTTVTVETLETQPGEEALQPRGTEKEPPGPTTDGVWGGGRPGDAAGPASSSTTAPAPRSSRPTEKAFTVPITDVTENALKDLDDVMKTTK
[1]
  inhibition of FAM19A5 binding to coated full-length LRRC4B ectodomain protein (in words): also able to inhibit the interaction
